Data on two substances can be found in article PMC8905165.

The test addresses GMPCPP microtubules containing 7% rhodamine-tubulin. The test can be described thus: single-molecule TIRF microscopy on immobilised microtubules; GMPCPP microtubules held on the coverslip by anti-β-tubulin antibodies, motors in solution (CENP-E483-2mNeon 50 nM, CENP-E483LZ-2mNeon 5 nM, CENP-E754-2mNeon 3.5 nM, CENP-EFL-mNeon 12.5 nM; landing rates at 3.5 nM); 80 mM PIPES pH 6.9, 5 mM MgCl2, 2 mM ATP, 1 mM DTT, oxygen scavenger mix; 30°C; residency time is the decay constant of a single-exponential fit.

In the case of “full-length human CENP-E-mNeonGreen, Q02224 1-2701”, the landing rate (events µm^−1 min^−1) came out at 0.147 and the residency time on the microtubule came out at 37.1 s.

As for “CENP-E483LZ-2mNeon (from UniProt Q02224 1-483)”, the residency time on the microtubule was determined as 6.36 s.
